Here are results for 24 molecules from patent US20250206818A1 (AGENUS, published 2025).

Where a chain is given by its changes, count along the chain named.

Sequences and labels used below:
B1: P13G05 Fab (Fab, V domains shown)
VH: QVQLQQSGAELVKPGASVELSCTASGFNIRDTYMYWVKQRPEQGLEWIGRIDPANGNTKFDPKFQDRATMTADTSSNTAYLQLSSLTSEDTAVYYCTTYFYRYDVGGFDYWGQGTTLTVS
VL: EIVLTQSPALMAASPGEKVTITCSVSSSISSSNLHWYQQKSGTSPKLWIYGTSNLASGVPVRFSGSGSGTSYSLTISSMEAEDAATYYCQQWSSYPFTFGSGTKLEIK
notes: Murine Fab, periplasmic extract
B2: P13F02 Fab (Fab, V domains shown)
VH: QVQLQQPGAELVKPGASVKLSCTASGFNIKDTYIHWVKQRPEQGLDWVGEIDPANGHTKYDPKFQGKATITADTSSNTAYLQLSSLTSEDTAVYYCATYYYRYDVGGFDYWGQGTTLTVS
VL: B1 VL with I2N, Y37F
notes: as for B1
B3: P13D04 Fab (Fab, V domains shown)
VH: B2 VH with P7S, T32N, I34M, H35D, D46E, V48I, E50K, H57N
VL: B1 VL with E1D, Y37F, S44P
notes: as for B1
B4: P13C08 Fab (Fab, V domains shown)
VH: B2 VH with Q5K, P7S, T32N, D46E, V48I, E50S, H57N, T69S, T98S, Y100F
VL: B1 VL with E1D, I2V, L4M, S7T, Y37F
notes: as for B1
B5: P13F09 Fab (Fab, V domains shown)
VH: B2 VH with P7S, T32N, D46E, V48I, E50S, H57N, T69S, D90G, T98S, Y100F
VL: B1 VL with Y37F
notes: as for B1
B6: P01C09 Fab (Fab, V domains shown)
VH: QVQLKQSGAELVKPGASVKLSCTASGFNIKDTYMYWVKQRPEQGLEWIGRIDPANGNTKYDPKLQGKATITADTSSNTVYLQLSSLTSEDTAVFYCVIYSYRYDVGGFDYWGQGTTLTVS
VL: B1 VL
notes: as for B1
B7: P13E02 Fab (Fab, V domains shown)
VH: B2 VH with A24V, D46E, V48I, H57N, T58S, D61A, K63R
VL: B1 VL with I2N, Y37F
notes: as for B1
B8: P14B07 Fab (Fab, V domains shown)
VH: B2 VH with T32N, D46E, V48I, E50S, H57N, T69S, A92T, T98S, Y100F
VL: B1 VL with I2N
notes: as for B1
B9: P13B11 Fab (Fab, V domains shown)
VH: B2 VH with T32N, I34M, H35D, D46E, V48I, E50K, H57N
VL: B1 VL with E1Q, Y37F
notes: as for B1
B10: P13H05 Fab (Fab, V domains shown)
VH: B2 VH with D46E, V48I, G56D, H57N
VL: B1 VL with I2N, Y37F
notes: as for B1
B11: P13C06 Fab (Fab, V domains shown)
VH: B1 VH with L4M, Q5K, R30T, Y101D, R102K, F108C
VL: B1 VL with H35Y, Y37F, Q39H, E80D, D83N, S93R
notes: as for B1
B12: P13A04 Fab (Fab, V domains shown)
VH: B1 VH with S7P, E89A
VL: B1 VL with E1D, S78N
notes: as for B1
B13: P16D04 Fab (Fab, V domains shown)
VH: B1 VH
VL: B1 VL with I2N, F97L, S101A, I107L
notes: as for B1
B14: P14G01 Fab (Fab, V domains shown)
VH: B1 VH with Q5K, Q6E
VL: B1 VL with E1D, Y37F
notes: as for B1
B15: P13F06 Fab (Fab, V domains shown)
VH: B1 VH
VL: B1 VL with V3L
notes: as for B1
B16: P13G01 Fab (Fab, V domains shown)
VH: B1 VH with Q1E
VL: B1 VL with E1Q
notes: as for B1
B17: P13C10 Fab (Fab, V domains shown)
VH: B1 VH
VL: B1 VL with I2N, Y37F
notes: as for B1
B18: P01A12 Fab (Fab, V domains shown)
VH: B2 VH with Q1E, P7S, I34M, H35Y, V48I, E50R, H57N, Y60F, A97S
VL: B1 VL with E1D
notes: as for B1
B19: P13D05 Fab (Fab, V domains shown)
VH: B1 VH with S7P, E46G
VL: B1 VL with Y37F, Q38R
notes: as for B1
B20: P14F01 Fab (Fab, V domains shown)
VH: B1 VH
VL: B1 VL with I2N, S94T
notes: as for B1
B21: P13G04 Fab (Fab, V domains shown)
VH: B1 VH with Q1E, Q3K, Q5M, Q6E, V18A
VL: B1 VL with I2N, Y37F
notes: as for B1
B22: P13B01 Fab (Fab, V domains shown)
VH: B1 VH with Q1E, E19K, R30K, M34I, Q43R, D66G, R67T, M70I
VL: B1 VL with I2N
notes: as for B1
B23: P15G05 Fab (Fab, V domains shown)
VH: B1 VH with Q1E
VL: B1 VL with F97L, S101A, I107L
notes: as for B1
B24: P15C02 Fab (Fab, V domains shown)
VH: B1 VH
VL: B1 VL with E1D, I2V, L4M, S7T
notes: as for B1

One assay concerns the target T1, human LAG-3 (human, UniProt P18627 23-450, limits assumed).
T1 construct: Selections used human LAG-3-Fc, human LAG-3-6His, a 30 aa LAG-3 peptide and/or cells with cynomolgus LAG-3; also called CD223
T1 sequence (looked up): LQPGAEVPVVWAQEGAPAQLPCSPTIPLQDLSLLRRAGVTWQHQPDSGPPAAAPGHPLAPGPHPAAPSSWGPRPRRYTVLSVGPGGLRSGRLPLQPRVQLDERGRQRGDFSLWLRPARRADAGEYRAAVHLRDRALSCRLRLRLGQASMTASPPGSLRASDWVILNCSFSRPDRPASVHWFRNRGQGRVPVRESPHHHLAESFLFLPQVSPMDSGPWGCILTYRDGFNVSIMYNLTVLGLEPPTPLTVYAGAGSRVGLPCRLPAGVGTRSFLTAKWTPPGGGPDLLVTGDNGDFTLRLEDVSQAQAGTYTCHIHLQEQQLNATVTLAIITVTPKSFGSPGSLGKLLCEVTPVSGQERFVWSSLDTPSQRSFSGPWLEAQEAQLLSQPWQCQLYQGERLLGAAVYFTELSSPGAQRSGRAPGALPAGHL
The experiment in a line: Fab phage display selection; periplasmic extracts screened by ELISA or flow cytometry. From the text: Anti-LAG-3 antibodies were identified by generation and selection of an immunized Fab phage display library. […] Per mouse, a Fab library was then generated by random-primed cDNA using total RNA as a template to amplify variable regions from mouse antibody genes. Heavy and kappa chain amplicons were combined and cloned into phagemid vectors. […] The 30 amino acid human LAG-3 peptide is a biotinylated peptide comprising the amino acid sequence of […] (SEQ ID NO: 199). Periplasmic extracts of selected Fab clones were then screened by ELISA or flow cytometry. Antibody sequencing and off-rate analysis were then performed on anti-LAG-3 Fabs.
Take B1: the binding result is recorded as “binds”.

Regarding B2, the binding result is “binds”.

B3: the binding result is reported as “binds”.

In the case of B4, the binding result is reported as “binds”.

Regarding B5, the binding result is on record as “binds”.

B6: the binding result is recorded as “binds”.

Consider B7, for which the binding result is recorded as “binds”.

For B8, the binding result is on record as “binds”.

Turning to B9, the binding result is reported as “binds”.

As to B10, the binding result is recorded as “binds”.

As to B11, the binding result is “binds”.

As to B12, the binding result was “binds”.

On to B13, for which the binding result is listed as “binds”.

For B14, the binding result was “binds”.

Regarding B15, the binding result is listed as “binds”.

Consider B16, for which the binding result was “binds”.

Regarding B17, the binding result is listed as “binds”.

B18: the binding result is listed as “binds”.

B19: the binding result is reported as “binds”.

For the molecule B20, the binding result was “binds”.

B21: the binding result is “binds”.

As to B22, the binding result is on record as “binds”.

Regarding B23, the binding result was “binds”.

As to B24, the binding result was “binds”.

Another assay concerns the target T2, human LAG-3 expressed on cells (human, UniProt P18627 23-525).
T2 construct: whole, on cells; also called CD223
T2 sequence (looked up): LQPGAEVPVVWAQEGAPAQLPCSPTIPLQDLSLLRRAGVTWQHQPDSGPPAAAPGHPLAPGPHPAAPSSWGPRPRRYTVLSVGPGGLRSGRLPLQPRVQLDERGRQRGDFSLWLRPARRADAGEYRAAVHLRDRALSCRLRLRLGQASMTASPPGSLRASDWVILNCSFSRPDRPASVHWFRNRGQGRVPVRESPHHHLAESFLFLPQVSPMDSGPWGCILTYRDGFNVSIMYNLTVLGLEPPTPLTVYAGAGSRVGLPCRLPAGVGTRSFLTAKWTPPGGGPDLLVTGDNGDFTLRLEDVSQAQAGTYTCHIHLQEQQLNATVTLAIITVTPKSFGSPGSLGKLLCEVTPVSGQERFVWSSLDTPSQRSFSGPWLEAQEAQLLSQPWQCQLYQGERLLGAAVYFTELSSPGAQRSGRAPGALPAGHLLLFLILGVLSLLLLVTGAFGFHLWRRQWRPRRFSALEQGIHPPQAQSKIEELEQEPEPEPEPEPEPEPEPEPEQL
Put plainly: flow cytometry, Fab periplasmic extract on Jurkat cells expressing human LAG-3 (FIGS. 1A-1C). The procedure: The anti-LAG-3 Fabs from periplasmic extracts were tested for binding to LAG-3-expressing cells using flow cytometry. Briefly, wild type and human LAG-3-expressing Jurkat cells were plated at 2×10⁵ cells/well in sample buffer (PBS (Gibco, Cat #10010-015)+0.5% FBS (Gibco, Cat #10270-106)) in 96-well U-bottom plates (Sarstedt). 22 μl of anti-LAG-3 Fab periplasmic extract and 83 μl of diluted anti-c-myc antibody (Gentaur, Clone #9E10, Cat #04-cmyc-9E10) were incubated for 30 minutes at room temperature. 100 μl of the periplasmic extract/anti-c-myc mixture was added to cells and then incubated for one hour on ice. Cells were washed three times and then incubated with a goat anti-mouse APC (BD Biosciences, Cat #550826) for 30 minutes on ice. Cells were washed three times and then analyzed with a FACS machine (BD Accuri6).
Take B1: the binding result was “binds”.

Take B2: the binding result was “binds”.

As for B3, the binding result is on record as “binds”.

On to B4, for which the binding result is “binds”.

With B5, the binding result is recorded as “binds”.

For B6, the binding result is “binds”.

As for B7, the binding result was “binds”.

Regarding B8, the binding result is “binds”.

In the case of B9, the binding result is reported as “binds”.

Turning to B10, the binding result is listed as “binds”.

In the case of B11, the binding result is on record as “binds”.

In the case of B12, the binding result was “binds”.

With B13, the binding result is given as “binds”.

As for B14, the binding result was “binds”.

As for B15, the binding result is given as “binds”.

As for B16, the binding result is on record as “binds”.

Turning to B17, the binding result was “binds”.

Regarding B18, the binding result is on record as “binds”.

As for B19, the binding result was “binds”.

On to B20, for which the binding result was “binds”.

For B21, the binding result is “binds”.

As to B22, the binding result is “binds”.

As for B23, the binding result was “binds”.

In the case of B24, the binding result is “binds”.
